Test results taken from publication PMC7698151, “Evidence for Pentapeptide-Dependent and Independent CheB Methylesterases” (International Journal of Molecular Sciences, 2020).

Target: T1, […] pentapeptide of the McpB (Aer2) chemoreceptor (Pseudomonas aeruginosa PAO1)
T1 construct: also called GWEEF; McpB pentapeptide; source: synthetic peptide (Biomedal S.L., Seville, Spain)
Assay: ITC
Conditions: both partners purified

B1: P. aeruginosa PAO1 CheB2 (PA0173) (enzyme)
chain: MPISVLVVDDSALIRSLLKEIIQADPELRLVGCAPDAFVARDLIKQHAPDVISLDVEMPRMDGLTFLDKLMKARPTPVLMISSLTERGSEATLRALELGAVDFIAKPRLGIAEGMQAYAEEIRAKLKTVARARLRRRAADAPAPPESAAPLLSTEKIIALGASTGGTEALKEVLLGLPAHSPGVVITQHMPPGFTRSFAERLDRLTRLSVSEARDGDRILPGHALVAPGDHHMEVQRSGANYVVRLNRQAQVNGHRPAVDVMFESLARCAGRNLLAGLLTGMGKDGARGLLAIRQAGGYTLAQDEATCVVYGMPREAVELGAAEDVLPLERIAAALLQQAARRGSGNRL
notes: source: E. coli BL21(DE3), purified (HisTrap HP)
  Kd: 93 ± 15 µM
